Consider three molecules from US20240058447A1 (INSTIL BIO UK, published 2024).

In experiment [1] the target is membrane-bound FRα on target cells (UniProt P15328). Nature of the experiment: cell-based or functional assay.
Experiment [2] deals with CD3 of the TCR/CD3 complex on T cells (human) (UniProt P07766). Nature of the experiment: cell-based or functional assay.
Experiment [3] has as its target T1, human histidine-tagged FRα (human, UniProt P15328 25-234).
T1 construct: also called folate receptor α; FOLR1; not shown: histidine tag
The experiment is described as follows: surface plasmon resonance (printed 'Surface plasma resonance'); orientation not stated; FIG. 54 names human histidine-tagged FRα.

Chain of membrane-bound FRα on target cells (P15328 25-234 limits assumed): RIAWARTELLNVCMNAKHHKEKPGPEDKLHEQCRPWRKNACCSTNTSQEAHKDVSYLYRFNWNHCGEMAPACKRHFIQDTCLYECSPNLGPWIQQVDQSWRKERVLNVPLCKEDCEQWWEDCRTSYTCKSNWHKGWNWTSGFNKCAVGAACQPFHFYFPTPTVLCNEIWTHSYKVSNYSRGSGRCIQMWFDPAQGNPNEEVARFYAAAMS
Chain of CD3 of the TCR/CD3 complex on T cells (human) (P07766 23-207, one chain of several): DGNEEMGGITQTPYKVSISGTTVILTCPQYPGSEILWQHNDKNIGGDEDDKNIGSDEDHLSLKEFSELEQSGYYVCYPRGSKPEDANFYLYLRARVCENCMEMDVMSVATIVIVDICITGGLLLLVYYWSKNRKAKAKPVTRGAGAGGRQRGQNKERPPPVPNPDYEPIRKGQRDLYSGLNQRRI
T1 sequence (P15328 25-234 limits assumed): as the sequence (P15328 25-234 limits assumed) above

In experiment [1], “anti-FRα CoStAR (MOV19 scFv - CD28 - CD40 costimulatory antigen receptor) on T cells or TILs” yielded an IFNγ production of lung TIL against Ba/F3.OKT3.FRα, CoStAR-Td versus non-Td of 4 fold; an IFNγ production of lung TIL against autologous tumor digest, E:T 1:1, CoStAR-Td versus non-Td of 6.4 fold; an IFNγ production of ovarian TIL against Ba/F3.OKT3.FRα, CoStAR-Td versus non-Td of 4.2 fold; an IFNγ production of ovarian TIL against autologous tumor digest, E:T 1:1, CoStAR-Td versus non-Td of 4.3 fold. In experiment [1], this molecule returned an IFNγ production of renal TIL against Ba/F3.OKT3.FRα, CoStAR-Td versus non-Td of 3.1 fold; an IFNγ production of renal TIL against autologous tumor digest, E:T 1:1, CoStAR-Td versus non-Td of 2.4 fold; an IL-2 production of lung TIL against Ba/F3.OKT3.FRα, CoStAR-Td versus non-Td of 18.3 fold; an IL-2 production of ovarian TIL against Ba/F3.OKT3.FRα, CoStAR-Td versus non-Td of 19.9 fold. In experiment [1], this molecule had an IL-2 production of renal TIL against Ba/F3.OKT3.FRα, CoStAR-Td versus non-Td of 15 fold; a fold expansion after a single stimulation with Ba/F3.OKT3.FRα, no exogenous IL-2, day 7 of 6.7 fold; a fold expansion after repeated stimulation with Ba/F3.OKT3.FRα (days 0, 7, 14, 21), no exogenous IL-2, day 35 of 829 fold; a fold expansion of T cells cocultured with Ba/F3.OKT3.FRα, E:T 8:1, 200 IU/mL IL-2, day 35 of 198 fold. This molecule also came in with a xCELLigence cytotoxicity against H508.Luc.Puro.FRα, AUC of normalized cell index over 48 h, E:T 10:1, donor 37636 TCR.CoStAR-Td T cells in experiment [1] of 91.2 AUC.
In experiment [2], “membrane-anchored OKT3 on target cells (scFv)” gave a cytotoxicity against Ba/F3.OKT3 at E:T 1:5 after 5 days, CoStAR transduced T cells of 82% and a cytotoxicity against Ba/F3.OKT3 at E:T 1:5 after 5 days, non-transduced T cells of 74%.

B1: MOV19 monoclonal antibody (antibody, V domains shown)
VH: QVQLQQSGAELVKPGASVKISCKASGYSFTGYFMNWVKQSHGKSLEWIGRIHPYDGDTFYNQNFKDKATLTVDKSSNTAHMELLSLTSEDFAVYYCTRYDGSRAMDYWGQGTTVTVSS
VL: DIELTQSPASLAVSLGQRAIISCKASQSVSFAGTSLMHWYHQKPGQQPKLLIYRASNLEAGVPTRFSGSGSKTDFTLNIHPVEEEDAATYYCQQSREYPYTFGGGTKLEIK
notes: also called MOV19 antibody; MOV19 anti-FRα antibody
Turning to B1, in experiment [3], the Kd was around 0.46 nM.
